Tests used:
[1] = target: mitochondrial respiratory complex III dimer (Chlamydomonas reinhardtii); assay: cryo-EM structure
[2] = target: mitochondrial respiratory complex IV monomer (Chlamydomonas reinhardtii); assay: cryo-EM structure

Substance: cytochrome c (from UniProt P15451 1-112) (natural protein)
- stoichiometry N (cyt. c per complex III dimer) [1]: 2
- stoichiometry N (cyt. c per complex IV monomer) [2]: 1
